Reference: patent publication US20240294624A1, “ANTI-ERYTHROPOIETIN ANTIBODY” (ANDREMACON S.R.L., priority 2021, published 2024)

What was measured:
EphB4 = target: T1, EphB4 (Homo sapiens, UniProt P54760); conditions: Epo for EphB4; cited from earlier work
T1 sequence (P54760 16-987): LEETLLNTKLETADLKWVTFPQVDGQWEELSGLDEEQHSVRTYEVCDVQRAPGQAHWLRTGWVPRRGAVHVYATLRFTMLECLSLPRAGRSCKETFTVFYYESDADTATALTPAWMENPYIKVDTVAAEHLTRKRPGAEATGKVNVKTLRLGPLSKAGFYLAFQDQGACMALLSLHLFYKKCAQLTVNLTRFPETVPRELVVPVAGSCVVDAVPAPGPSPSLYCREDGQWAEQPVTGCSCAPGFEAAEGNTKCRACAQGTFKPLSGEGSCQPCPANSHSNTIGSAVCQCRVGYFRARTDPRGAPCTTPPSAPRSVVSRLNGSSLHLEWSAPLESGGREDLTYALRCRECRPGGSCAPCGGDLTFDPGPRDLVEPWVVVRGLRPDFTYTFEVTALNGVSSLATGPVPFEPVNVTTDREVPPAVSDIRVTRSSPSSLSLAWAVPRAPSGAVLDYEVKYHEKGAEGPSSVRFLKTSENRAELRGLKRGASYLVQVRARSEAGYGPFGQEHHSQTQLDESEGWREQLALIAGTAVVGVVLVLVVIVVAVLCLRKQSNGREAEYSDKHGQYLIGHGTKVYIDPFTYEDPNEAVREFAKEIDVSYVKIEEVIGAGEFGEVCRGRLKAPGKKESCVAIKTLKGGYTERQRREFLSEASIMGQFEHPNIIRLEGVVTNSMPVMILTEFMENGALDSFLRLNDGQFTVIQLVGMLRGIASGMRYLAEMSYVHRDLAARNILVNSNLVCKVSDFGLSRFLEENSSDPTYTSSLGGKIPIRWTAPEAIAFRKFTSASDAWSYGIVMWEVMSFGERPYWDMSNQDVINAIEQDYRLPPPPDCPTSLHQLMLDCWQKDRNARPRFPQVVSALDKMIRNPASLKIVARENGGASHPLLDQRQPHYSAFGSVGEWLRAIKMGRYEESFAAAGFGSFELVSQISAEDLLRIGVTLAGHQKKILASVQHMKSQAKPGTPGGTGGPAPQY

[1] = tested on: primary TMZ-resistant glioblastoma stem cells (GSC-R); assay: MTT viability of chemo-resistant cells; conditions: Homo sapiens, Glioblastoma stem cell, 96 h, read-out: percent survival / viability
Description: In detail, GSCs and U87 parental cell line, which are sensitive to TMZ, were first maintained in low doses of TMZ (25 μM) and then successively exposed for two months to incremental doses of 25 μM of TMZ each time (up to 500 μM). After the killing of a majority of the cells, the surviving cells were maintained until a normal rate of growth were obtained. […] Cell viability was assessed by 3-(4,5-Dimethylthiazol-2-yl)-2,5-Diphenyl-tetrazoliumBromide (MTT) assay, as a function of redox potential (FIG. 24). Cells (5×10^3/well) were seeded and cultured in 96-well plate for 24 h in Basal Medium (BM). Then, culture media were replaced with fresh media containing the specific treatments, or in BM as a control condition (CTR).
Test was performed in triplicate after 96 h of treatment, by replacing culture media with 100 μL of fresh media added with 10 μL of MTT 5 mg/ml in D-PBS. After 4 h of incubation, media were removed and cells were lysed with 100 μL of 2-propanol/formic acid (95:5, by vol) for 10 min. Then, absorbance was read at 570 nm in microplate reader.

murine EPO [2] = target: T2, murine EPO (murine, UniProt P07321 27-192, limits assumed); assay: SPR (ProteOn XPR36), anti-EPO (C4) immobilized by amine coupling, EPO as analyte; murine EPO
T2 construct: also called mEPO; m-EPO
T2 sequence (looked up): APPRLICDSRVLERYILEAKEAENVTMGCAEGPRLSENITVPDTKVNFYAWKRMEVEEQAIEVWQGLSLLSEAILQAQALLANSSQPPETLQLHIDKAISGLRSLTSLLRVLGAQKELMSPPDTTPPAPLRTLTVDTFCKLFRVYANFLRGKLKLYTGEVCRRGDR

murine EPO [3] = target: T2, murine EPO; assay: SPR (ProteOn XPR36), anti-EPO (C4) immobilized by amine coupling, EPO as analyte; murine EPO; fitted value

## Epo: 30.4 kDa glycoprotein, main erythropoietic hormone
EphB4
  Kd: 880 nM

## Cn1nnc2c(C(N)=O)ncn2c1=O [TMZ, Temozolomide]
[1]
  viability at 100 µM: ~93%

B1: anti-EPO (C4) monoclonal antibody (antibody, V domains shown)
VH: EVKLQESGGGLVQPGGSLKLSCAASGFTFSTYTMSWVRQTPEKRLEWVAYISNGGDRTYYPDTVKGRFTISRDDAKNTLFLQMSSLKSEDTAMYYCARHNITTVPFTMDYWGQGTSVTVSS
VL: DIVLTQSPASLAVSLGQRATISCRASESVDYYGTGLMQWYQQRPGQPPKLLIYGASNVGSGVPARFSGSGSGTDFSLNIHPVEGDDIAMYFCQQTRKVPSTFGGGTKLEIK
notes: also called C4 antibody; anti-EPO (C4) mAB
Murine EPO [2]
  koff: 0.000669 s⁻¹
  kon: 663 M⁻¹ s⁻¹
Murine EPO [3]
  Kd: 1010 nM
